US20050026838A1

B1: Fibroblast Growth Factor 13 (recombinant human FGF-13, expressed in Escherichia coli) (ligand)
chain: MQGENHPSPNFNQYVRDQGAMTDQLSRRQIREYQLYSRTSGKHVQVTGRRISATAEDGNKFAKLIVETDTFGSRVRIKGAESEKYICMNKRGKLIGKPSGKSKDCVFTEIVLENNYTAFQNARHEGWFMAFTRQGRPRQASRSRQNQREAHFIKRLYQGQLPFPNHAEKQKQFEFVGSAPTRRTKRTRRPQPLT

Target: [125I]-FGF-1 binding sites on membranes prepared from adult rat cortex
Assay: displacement of [125I]-FGF-1 by unlabelled FGF, membranes prepared from adult rat cortex

| Molecule | IC50 [nM] |
| --- | --- |
| FGF-2 (basic FGF) (from UniProt P09038 143-288) (ligand) | 0.2 |
| B1 | 1 |
